Experimental data reported in patent publication US20210130485A1 (DENALI THERAPEUTICS, published 2021).
Numbering of substitutions follows the chain as printed. Each block holds one binder with its values, some of them ahead of it.

Tests used:
[1] = molecular target: T1, Human transferrin receptor protein 1 (TFR1) (human, UniProt P02786 89-760, limits assumed); test: soft randomization libraries selected against human TfR
T1 construct: also called human TfR

[2] = molecular target: T1, Human transferrin receptor protein 1 …; test: binding ELISA, purified Fab-Fc fusion, TfR coated on the plate
Protocol: Binding ELISAs were conducted with purified Fab-Fc fusion variants with human or cyno TfR coated on the plate, as described above. The variants from the clone CH3C.18 maturation library, clone CH3C.3.2-1, clone CH3C.3.2-5, and clone CH3C.3.2-19, bound human and cyno TfR with approximately equivalent EC₅₀ values, whereas the parent clones CH3C.18 and CH3C.35 had greater than 10-fold better binding to human versus cyno TfR.
ELISA plates were coated with antigen, typically at […] overnight, then blocked with 1% BSA before addition of phage or periplasmic extracts. […] The plates were washed again, and then developed with TMB reagent and quenched with 2N sulfuric acid. Absorbance at 450 nm was quantified using a plate reader (BioTek®) and binding curves were plotted using Prism software where applicable. Absorbance signal for tested clones was compared to negative control (phage or paraplasmic extract lacking Fc). In some assays, soluble transferrin or other competitor was added during the binding step, typically at significant molar excess (greater than 10-fold excess).

[3] = molecular target: T1, Human transferrin receptor protein 1 …; test: selection of combinatorial CH3 libraries for binders to human TfR, affinity maturation

T1 sequence (P02786 89-760 limits assumed): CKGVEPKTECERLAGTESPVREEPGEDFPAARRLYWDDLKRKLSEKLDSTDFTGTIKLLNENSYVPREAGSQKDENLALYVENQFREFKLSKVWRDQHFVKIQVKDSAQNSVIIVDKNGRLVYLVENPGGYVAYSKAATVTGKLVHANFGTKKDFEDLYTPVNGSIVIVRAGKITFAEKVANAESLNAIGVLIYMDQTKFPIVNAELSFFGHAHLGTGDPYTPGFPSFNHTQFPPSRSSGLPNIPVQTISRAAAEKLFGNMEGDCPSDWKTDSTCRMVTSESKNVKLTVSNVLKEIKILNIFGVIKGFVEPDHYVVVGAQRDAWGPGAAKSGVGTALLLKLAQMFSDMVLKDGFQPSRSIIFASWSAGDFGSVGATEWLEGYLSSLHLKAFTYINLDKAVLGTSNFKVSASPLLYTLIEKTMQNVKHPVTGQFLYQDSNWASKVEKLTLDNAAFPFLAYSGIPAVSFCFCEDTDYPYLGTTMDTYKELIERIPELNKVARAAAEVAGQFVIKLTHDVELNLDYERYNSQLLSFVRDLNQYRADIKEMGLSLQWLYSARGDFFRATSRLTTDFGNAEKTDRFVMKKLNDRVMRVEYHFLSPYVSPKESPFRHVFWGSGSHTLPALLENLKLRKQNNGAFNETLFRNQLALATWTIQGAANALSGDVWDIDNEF

B2: Clone CH3C.25 (designed binder)
chain: APELLGGPSVFLFPPKPKDTLMISRTPEVTCVVVDVSHEDPEVKFNWYVDGVEVHNAKTKPREEQYNSTYRVVSVLTVLHQDWLNGKEYKCKVSNKALPAPIEKTISKAKGQPREPQVYTLPPSRDELTKNQVSLTCLVKGFYPSDIAVEWESMGHVWVGYKTTPPVLDSDGSFFLYSKLTVDKSTWQQGWVFSCSVMHEALHNHYTQKSLSLSPGK
notes: Modified Fc polypeptide
- binding result [1]: binds

B3: Clone CH3C.34 (designed binder)
chain: B2 chain with M154L, H156L, G160F, Y161S, D183P
notes: Modified Fc polypeptide
- binding result [1]: binds

Second part, the binder after the results:

- binding result [1]: binds
B1: Clone CH3C.21 (designed binder)
chain: B2 chain with M154L, H156L, D183P
notes: Modified Fc polypeptide

- binding result [2]: binds
B4: Clone CH3C.3.2-1 (designed binder)
chain: B2 chain with M154L, G160N, Y161F, D183P
notes: Modified Fc polypeptide; also called CH3C.18.3.2-1

- binding result [3]: binds
B5: Clone CH3C.35.21 (designed binder)
chain: B2 chain with E150W, M154Y, H156T, V157E, V159S, G160S, D183T, S185E, T186E, W191F
notes: Modified Fc polypeptide
